Laboratory results taken from patent US20210253643A1, “HYDROPHOBIC BIOMOLECULE STABILIZING SCAFFOLD PEPTIDES AND METHODS OF MAKING AND USING SAME” (The University of British Columbia, priority 2018, published 2021).
No end group written: not given here.

Key:
membrane proteins = experiment: on-gel reconstitution, competitor equimolar NSPr-FAM; 0 no, 100 full competition
FhuA (E. coli), P06971 [1] = target: T1, FhuA (E. coli), P06971; experiment: in-gel reconstitution, CN-PAGE titration of NSPr, Boltzmann fit
T1 chain: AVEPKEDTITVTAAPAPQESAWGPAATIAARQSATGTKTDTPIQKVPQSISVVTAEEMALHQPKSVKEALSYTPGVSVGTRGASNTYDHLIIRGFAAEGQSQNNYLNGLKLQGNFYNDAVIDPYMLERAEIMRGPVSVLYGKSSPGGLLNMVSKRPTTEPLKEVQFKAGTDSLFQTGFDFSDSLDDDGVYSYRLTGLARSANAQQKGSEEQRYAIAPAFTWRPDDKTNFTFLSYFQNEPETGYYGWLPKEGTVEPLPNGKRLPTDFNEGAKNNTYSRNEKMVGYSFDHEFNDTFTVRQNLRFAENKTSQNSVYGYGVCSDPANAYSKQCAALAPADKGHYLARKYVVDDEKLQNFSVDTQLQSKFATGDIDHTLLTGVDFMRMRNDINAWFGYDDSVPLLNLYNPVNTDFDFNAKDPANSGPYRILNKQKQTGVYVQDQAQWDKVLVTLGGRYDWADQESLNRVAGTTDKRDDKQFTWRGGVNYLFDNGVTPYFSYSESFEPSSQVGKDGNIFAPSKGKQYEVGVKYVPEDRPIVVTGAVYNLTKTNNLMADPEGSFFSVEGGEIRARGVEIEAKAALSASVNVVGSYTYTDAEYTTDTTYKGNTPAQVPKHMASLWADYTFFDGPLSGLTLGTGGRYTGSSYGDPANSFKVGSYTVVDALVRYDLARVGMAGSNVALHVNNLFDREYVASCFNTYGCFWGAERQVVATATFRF

MalFGK2, P02916 [2] = experiment: as above
SecYEG complex, P0AGA2 = target: T2, SecYEG complex, P0AGA2; experiment: as above
T2 chain 1: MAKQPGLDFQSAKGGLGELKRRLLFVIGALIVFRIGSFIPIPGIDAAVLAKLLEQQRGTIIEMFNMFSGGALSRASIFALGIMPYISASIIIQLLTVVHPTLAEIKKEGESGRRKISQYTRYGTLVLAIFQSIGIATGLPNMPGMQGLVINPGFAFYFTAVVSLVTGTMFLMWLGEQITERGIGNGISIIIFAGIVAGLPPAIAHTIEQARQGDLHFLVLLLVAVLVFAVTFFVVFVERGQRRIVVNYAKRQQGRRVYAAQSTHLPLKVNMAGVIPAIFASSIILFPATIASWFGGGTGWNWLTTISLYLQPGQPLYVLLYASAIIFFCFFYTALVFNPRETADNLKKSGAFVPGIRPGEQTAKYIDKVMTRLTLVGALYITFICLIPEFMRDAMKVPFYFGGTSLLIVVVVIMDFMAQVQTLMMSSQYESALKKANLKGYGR
T2 chain 2: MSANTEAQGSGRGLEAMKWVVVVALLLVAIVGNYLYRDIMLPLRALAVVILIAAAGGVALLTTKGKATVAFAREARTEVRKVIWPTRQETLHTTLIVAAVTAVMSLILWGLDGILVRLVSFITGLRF
T2 chain 3: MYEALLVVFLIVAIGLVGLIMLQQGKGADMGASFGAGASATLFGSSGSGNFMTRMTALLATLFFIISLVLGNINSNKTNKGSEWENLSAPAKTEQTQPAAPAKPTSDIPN

[3] = target: T3, trimeric OmpF porin (E. coli), P02931; experiment: as above
T3 chain: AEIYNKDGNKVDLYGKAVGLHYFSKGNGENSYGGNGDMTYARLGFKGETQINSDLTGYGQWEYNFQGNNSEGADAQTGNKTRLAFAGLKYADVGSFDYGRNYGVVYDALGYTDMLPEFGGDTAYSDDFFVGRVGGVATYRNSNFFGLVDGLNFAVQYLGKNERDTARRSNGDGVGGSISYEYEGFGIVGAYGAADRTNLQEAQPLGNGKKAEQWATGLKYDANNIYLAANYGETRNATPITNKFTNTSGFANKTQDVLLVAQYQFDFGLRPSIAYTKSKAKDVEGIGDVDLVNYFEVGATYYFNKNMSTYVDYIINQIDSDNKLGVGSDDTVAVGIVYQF

MalFGK2, P02916 [4] = experiment: BN-PAGE of MalFGK2-NSPr after 1 hr of incubation at 30 °C
MalFGK2, P02916 [5] = experiment: BN-PAGE of MalFGK2-NSPr after 2 hr of incubation at 30 °C
MalFGK2, P02916 [6] = experiment: BN-PAGE of MalFGK2-NSPr after 3 hr of incubation at 30 °C
MalFGK2, P02916 [7] = experiment: BN-PAGE of MalFGK2-NSPr, time 0 hr of incubation at 30 °C
MalFGK2, P02916 [8] = experiment: SDS-PAGE densitometry of purified peptidisc against an NSPr standard curve
[9] = target: photosynthetic bacterial reaction center (BRC) from Rhodobacter sphaeroides (Rhodobacter sphaeroides), P0C0Y9; experiment: as above
FhuA (E. coli), P06971 [10] = target: T1, FhuA (E. coli), P06971; experiment: density of the FhuA band of FIG. 19B plotted against log(mol NSPr/mol FhuA); half-maximal reconstitution ratio RR50
FhuA (E. coli), P06971 [11] = target: T1, FhuA (E. coli), P06971; experiment: western blot with streptavidin-Alexa 680 of peptidisc made with NSPrbio, against a standard curve

MalFGK2, P02916, sequence (P02916 whole entry, chain 1 of 3): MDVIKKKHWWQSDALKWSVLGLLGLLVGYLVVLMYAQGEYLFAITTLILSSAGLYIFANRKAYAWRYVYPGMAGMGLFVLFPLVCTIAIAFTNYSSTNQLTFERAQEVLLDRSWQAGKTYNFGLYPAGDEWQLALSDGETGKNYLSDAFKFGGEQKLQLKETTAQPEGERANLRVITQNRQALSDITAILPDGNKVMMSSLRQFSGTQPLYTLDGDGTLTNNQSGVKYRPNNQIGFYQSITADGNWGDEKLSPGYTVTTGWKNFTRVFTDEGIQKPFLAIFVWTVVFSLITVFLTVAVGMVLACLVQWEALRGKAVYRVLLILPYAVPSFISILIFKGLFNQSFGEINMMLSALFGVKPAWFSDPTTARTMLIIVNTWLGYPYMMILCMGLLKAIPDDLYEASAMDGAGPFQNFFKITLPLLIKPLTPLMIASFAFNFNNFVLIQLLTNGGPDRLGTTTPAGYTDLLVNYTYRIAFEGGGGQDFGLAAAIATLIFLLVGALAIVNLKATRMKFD
MalFGK2, P02916, sequence (P68183 whole entry, chain 2 of 3, further chain): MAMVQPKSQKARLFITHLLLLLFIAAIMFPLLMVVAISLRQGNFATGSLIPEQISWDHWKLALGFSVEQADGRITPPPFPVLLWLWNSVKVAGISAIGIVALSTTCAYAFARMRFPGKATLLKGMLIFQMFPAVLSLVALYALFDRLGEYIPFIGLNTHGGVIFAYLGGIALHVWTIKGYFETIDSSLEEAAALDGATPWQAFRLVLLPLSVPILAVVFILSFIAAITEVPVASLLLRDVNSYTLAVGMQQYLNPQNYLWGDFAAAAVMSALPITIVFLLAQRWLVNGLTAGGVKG
MalFGK2, P02916, sequence (P68187 whole entry, chain 3 of 3, further chain): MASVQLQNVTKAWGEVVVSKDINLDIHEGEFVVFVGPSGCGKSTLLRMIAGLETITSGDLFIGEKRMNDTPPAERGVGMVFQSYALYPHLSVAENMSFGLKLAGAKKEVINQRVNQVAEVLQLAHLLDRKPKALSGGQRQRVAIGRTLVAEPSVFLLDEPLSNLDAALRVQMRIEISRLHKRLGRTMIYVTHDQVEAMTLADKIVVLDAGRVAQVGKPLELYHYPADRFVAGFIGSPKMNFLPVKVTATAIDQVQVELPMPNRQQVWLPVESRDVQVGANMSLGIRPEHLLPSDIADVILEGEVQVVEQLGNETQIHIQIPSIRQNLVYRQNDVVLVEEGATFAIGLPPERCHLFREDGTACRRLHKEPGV

B1: Ac-NSP-NH2 (peptide)
peptide: DWLKAFYDKVAEKLKEAAPDWFKAFYDKVAEKFKEAF
modifications: not fully specified (N-terminus, C-terminus)
- Competition peptide (% NSPr-FAM) (membrane proteins): 10%

B2: NSPr (peptide)
peptide: FAEKFKEAVKDYFAKFWDPAAEKLKEAVKDYFAKLWD
modifications: not checked
- RR50 (half-maximal reconstitution molar ratio) (mol NSPr/mol protein) (FhuA (E. coli), P06971 [1]): 20
- RR50 (half-maximal reconstitution molar ratio) (mol NSPr/mol protein) (MalFGK2, P02916 [2]): 20
- RR50 (half-maximal reconstitution molar ratio) (mol NSPr/mol protein) (SecYEG complex, P0AGA2): 20
- RR50 (half-maximal reconstitution molar ratio) (mol NSPr/mol protein) [3]: 20
- (%) of the MalFGK2 Peptidisc band (MalFGK2, P02916 [4]): 89%
- (%) of the MalFGK2 Peptidisc band (MalFGK2, P02916 [5]): 86%
- (%) of the MalFGK2 Peptidisc band (MalFGK2, P02916 [6]): 84%
- (%) of the MalFGK2 Peptidisc band (MalFGK2, P02916 [7]): 100%
- Measured NSPr stoichiometry (NSPr/disc) (MalFGK2, P02916 [8]): 10 NSPr/disc
- Measured NSPr stoichiometry (NSPr/disc) [9]: 9 NSPr/disc
- EC50 (read off the curve) (mol NSPr/mol FhuA) (FhuA (E. coli), P06971 [10]): 20

B3: NSPr-biotin (peptide)
peptide: B2 peptide
modifications: not fully specified (N-terminus)
- Measured NSPr stoichiometry (NSPr/disc) (FhuA (E. coli), P06971 [11]): 10 NSPr/disc
